Common to all, as to type: biochemical
Series [1] has as its system classical pathway of complement system. Briefly: Complement activation (C3 fixation) by LIPC- or CEase-digested immobilized LDL with human serum. The note with it: 0-50 μg/ml LIPC; 0-2 hours. As for the experimental part: 96-well MaxiSorp plates were coated with fresh human LDL (A, D, E), VLDL (B), or NaOH-hydrolyzed LDL (C). After blocking with BSA, the plates, except (C), were digested with LIPC. To test complement activation, the plates were incubated with diluted native human serum (N), C1q-depleted human serum (Cd), factor B-depleted human serum (Bd), or human serum containing Mg-EGTA (ME). C3 fixation on the plate was detected with a monoclonal anti-C3d antibody followed by HRP-conjugated secondary antibody. Specific conditions for LIPC digestion and HRP-catalyzed color development of each experiment were outlined as following: LIPC was used at 10 μg/ml for (A, B, E), 0-50 μg/ml for (D), and no LIPC for (C). LIPC degradation was 1 hour for (D), 2 hours for (A, B), and 0-2 hours for (E). Color development was 15 minutes for (A, B, C, E) and 10 minutes for (D). For NaOH hydrolysis of LDL, 1.35 mg/ml of LDL was incubated in 0.15M NaOH solution at 25° C. for up to 60 minutes. Aliquots were taken out and neutralized with 0.15M HCl at 1, 10, 20, 60 minutes.
LIPC and CEase, both having 8 μUnits of phospholipase A1 activity but having 3 μUnits and 8125 μUnits of triglyceride hydrolase activity respectively, were used for 2 hours digestion of immobilized LDL. Complement activation with diluted native human serum is then determined as in FIG. 1. The HRP-catalyzed color development was 15 minutes.
Human LDL coating and 1 hour (C) or 2 hours (A, B) LIPC digestion was performed as described in FIG. 1. (A) For complement activation, 0-50 μM of phosphocholine was added into diluted native human serum. […]
After thorough washing of the plate, C3 fixation and final membrane attack complex formation on the plate were determined with anti-human C3d antibody and anti-human C5b-9 antibody, in combination with HRP-conjugated secondary antibody, respectively. […] The final peroxidase activity was monitored at 450 nm with 3,3′,5,5′-tetramethyl-benzidine and hydrogen peroxide as substrates after 10 or 15 minutes reaction at room temperature.

A short description of series [2]: Triglyceride hydrolase activity assay. The note with it: amount of enzyme used for LDL digestion. As for the experimental part:
(§1) Triglyceride hydrolase activity of CEase and LIPC was determined with DMPTB as substrate according to Choi et al. (Choi et al., 2003) Phospholipase A activity of CEase and LIPC was assayed similarly as triglyceride hydrolase activity but with 1.5 mM of 1,2-bis(heptanoylthio)glycerophosphocholine as substrate and assay buffer containing 10 mM of CaCl2 instead of 1 mM of EDTA.

Series [3] is described as follows: Phospholipase A activity assay. To be noted: amount of enzyme used for LDL digestion. The procedure:
as §1

B1: LIPC: recombinant human LIPC (hepatic lipase) (protein, UniProt P11150 23-499, looked up)
Hepatic triacylglycerol lipase: LGQSLKPEPFGRRAQAVETNKTLHEMKTRFLLFGETNQGCQIRINHPDTLQECGFNSSLPLVMIIHGWSVDGVLENWIWQMVAALKSQPAQPVNVGLVDWITLAHDHYTIAVRNTRLVGKEVAALLRWLEESVQLSRSHVHLIGYSLGAHVSGFAGSSIGGTHKIGRITGLDAAGPLFEGSAPSNRLSPDDANFVDAIHTFTREHMGLSVGIKQPIGHYDFYPNGGSFQPGCHFLELYRHIAQHGFNAITQTIKCSHERSVHLFIDSLLHAGTQSMAYPCGDMNSFSQGLCLSCKKGRCNTLGYHVRQEPRSKSKRLFLVTRAQSPFKVYHYQFKIQFINQTETPIQTTFTMSLLGTKEKMQKIPITLGKGIASNKTYSFLITLDVDIGELIMIKFKWENSAVWANVWDTVQTIIPWSTGPRHSGLVLKTIRVKAGETQQRMTFCSENTDDLLLRPTQEKIFVKCEIKSKTSKRKIR
As to B1, in series [1], the “complement activation, dependence on LIPC degradation” value is “both dose and time-dependent”. Also, in series [2], the TGhydrolase activity is 3 μUnits. Besides, the PLA1 activity in series [3] is 8 μUnits.

The record behind these values is patent publication US20160151410A1, “CLEARANCE OF BIOACTIVE LIPIDS FROM MEMBRANE STRUCTURES BY CYCLODEXTRINS” (The Trustees of Columbia University in the City of New York, priority 2013, published 2016).
